{
  "source": "paper PMC13389011",
  "about": "“Expedient single-round selection of hyper-modified aptamer targeting insulin receptor from over-represented dually nucleobase-modified DNA libraries”",
  "data": [
    {"target": "Human insulin receptor ectodomain (HIR) (Homo sapiens, UniProt P06213-2 28-944)", "sequence (P06213 other isoform, or with tags, fused parts or gaps)": "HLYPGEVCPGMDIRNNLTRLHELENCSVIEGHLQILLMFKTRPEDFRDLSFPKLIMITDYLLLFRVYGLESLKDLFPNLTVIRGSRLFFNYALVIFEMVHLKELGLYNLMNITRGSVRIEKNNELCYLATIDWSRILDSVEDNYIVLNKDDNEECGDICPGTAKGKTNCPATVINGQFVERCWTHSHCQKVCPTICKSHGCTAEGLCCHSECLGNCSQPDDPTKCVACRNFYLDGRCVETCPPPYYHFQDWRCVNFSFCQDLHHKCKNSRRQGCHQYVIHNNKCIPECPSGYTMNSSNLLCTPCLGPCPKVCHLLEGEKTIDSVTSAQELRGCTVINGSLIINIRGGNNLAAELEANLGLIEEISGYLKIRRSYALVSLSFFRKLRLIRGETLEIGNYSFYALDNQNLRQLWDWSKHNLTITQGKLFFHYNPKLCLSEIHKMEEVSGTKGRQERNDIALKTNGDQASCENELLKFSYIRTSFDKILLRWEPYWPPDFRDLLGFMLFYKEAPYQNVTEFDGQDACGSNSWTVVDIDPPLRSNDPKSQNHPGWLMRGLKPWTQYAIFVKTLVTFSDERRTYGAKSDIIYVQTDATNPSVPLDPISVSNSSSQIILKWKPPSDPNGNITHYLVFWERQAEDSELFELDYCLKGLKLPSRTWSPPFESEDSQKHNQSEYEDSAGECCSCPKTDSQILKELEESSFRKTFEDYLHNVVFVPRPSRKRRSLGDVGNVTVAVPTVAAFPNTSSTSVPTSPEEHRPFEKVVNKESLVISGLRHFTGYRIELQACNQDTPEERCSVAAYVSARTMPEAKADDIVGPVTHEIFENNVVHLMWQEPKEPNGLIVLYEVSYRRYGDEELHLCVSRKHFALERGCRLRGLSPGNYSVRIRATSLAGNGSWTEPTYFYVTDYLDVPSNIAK", "assay": "FNBA; IB: PBS (1.5 mM KH2PO4, 8.1 mM Na2HPO4, 2.7 mM KCl, 137 mM NaCl) + 5 mM MgCl2, pH 7.4; MST +0.1% Pluronic F-127, 25 C; SPR 25 C; FNBA and BLI r.t.", "conditions": "protein: commercial; tags: His-tag; chain copies: 2; label: 5'-Cy5", "values": [
      {"binder": "HIR-6_N (ssDNA) DNA: CATGACGCTCACTGTATCTCGCGTTTAACGTAACAGCGATGTCTCTCATGATGTC", "binding result": "no binding"},
      {"binder": "HIR-8_N (ssDNA) DNA: CATGACGCTCACTGTATCTCGCCTTTAACGTAAGAGCGATGTCTCTCATGATGTC", "binding result": "no binding"}
    ]},
    {"target": "Human insulin receptor ectodomain (HIR) (Homo sapiens, UniProt P06213-2;P06213-2 28-746;751-944)", "sequence (P06213 other isoform, or with tags, fused parts or gaps, chain 1 of 2)": "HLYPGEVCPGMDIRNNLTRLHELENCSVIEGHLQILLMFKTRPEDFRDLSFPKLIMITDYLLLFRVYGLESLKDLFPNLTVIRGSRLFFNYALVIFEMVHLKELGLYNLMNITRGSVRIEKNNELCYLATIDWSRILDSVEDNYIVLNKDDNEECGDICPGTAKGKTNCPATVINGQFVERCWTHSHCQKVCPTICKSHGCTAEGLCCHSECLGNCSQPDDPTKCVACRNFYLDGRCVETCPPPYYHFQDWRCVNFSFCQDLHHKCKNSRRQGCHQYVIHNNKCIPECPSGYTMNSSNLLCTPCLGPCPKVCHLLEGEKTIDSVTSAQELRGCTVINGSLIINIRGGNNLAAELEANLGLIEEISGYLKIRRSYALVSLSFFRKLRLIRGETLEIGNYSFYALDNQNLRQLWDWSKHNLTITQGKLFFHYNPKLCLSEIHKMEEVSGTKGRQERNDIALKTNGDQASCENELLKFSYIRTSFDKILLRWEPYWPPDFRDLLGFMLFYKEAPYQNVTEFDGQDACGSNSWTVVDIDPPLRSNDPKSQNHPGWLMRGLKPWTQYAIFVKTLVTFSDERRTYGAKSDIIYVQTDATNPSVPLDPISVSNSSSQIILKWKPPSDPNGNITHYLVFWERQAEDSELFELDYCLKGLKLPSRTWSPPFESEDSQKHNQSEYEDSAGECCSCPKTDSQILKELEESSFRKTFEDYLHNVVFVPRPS", "sequence (P06213 763-956, chain 2 of 2)": "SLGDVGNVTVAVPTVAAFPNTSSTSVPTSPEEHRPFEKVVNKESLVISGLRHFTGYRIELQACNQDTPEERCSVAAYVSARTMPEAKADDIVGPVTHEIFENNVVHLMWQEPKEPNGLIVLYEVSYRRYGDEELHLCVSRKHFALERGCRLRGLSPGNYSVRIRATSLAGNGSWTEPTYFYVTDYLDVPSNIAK", "assay": "fluorescent Ni-plate binding assay (FNBA); PBS (1.5 mM KH2PO4, 8.1 mM Na2HPO4, 2.7 mM KCl, 137 mM NaCl) with 5 mM MgCl2, pH 7.4; MST with 0.1% Pluronic F-127 at 25 C; FNBA at room temperature; high values mean tight binding", "conditions": "protein: commercial; tags: His-tag; chain copies: 2;2; label: 5'-Cy5", "units": {"binding signal": "a.u. fluorescence"}, "values": [
      {"binder": "ACTGTATCTCGCGUUUAACGUAACAGCGAU (XNA, DNA backbone; 7-deaza-7-(indolyl-ethyl)-dA (dAAIn) at 17,18,22,23,25,29; 5-(phenyl-ethynyl)-dU (dUEPh) at 14,15,16,21,30)", "note": "[HIR-6_T8]", "binding signal": 13400},
      {"binder": "CGCTCACTGTATCTCGCGUUUAACGUAACAGCGAU (XNA, DNA backbone; 7-deaza-7-(indolyl-ethyl)-dA (dAAIn) at 22,23,27,28,30,34; 5-(phenyl-ethynyl)-dU (dUEPh) at 19,20,21,26,35)", "note": "[HIR-6_T7]", "binding signal": 16500},
      {"binder": "HIR-6_N (ssDNA) DNA: CATGACGCTCACTGTATCTCGCGTTTAACGTAACAGCGATGTCTCTCATGATGTC", "binding signal": "184 ± 176"},
      {"binder": "HIR-8_N (ssDNA) DNA: CATGACGCTCACTGTATCTCGCCTTTAACGTAAGAGCGATGTCTCTCATGATGTC", "binding signal": "553 ± 165"},
      {"binder": "HIR-6_M2 (XNA, DNA backbone; 7-deaza-7-(indolyl-ethyl)-dA (dAAIn) at 27,28,32,33,35,39; 5-(phenyl-ethynyl)-dU (dUEPh) at 24,25,26,31,40) DNA: CATGACGCTCACTGTATCTCGCGUUUAACGUAACAGCGAUGTCTCTCATGATGTC", "binding signal": 28300},
      {"binder": "CATGACGCTCACTGTATCTCGCGUUUAACGUAACAGCGAUGUCUC (XNA, DNA backbone; 7-deaza-7-(indolyl-ethyl)-dA (dAAIn) at 27,28,32,33,35,39; 5-(phenyl-ethynyl)-dU (dUEPh) at 24,25,26,31,40,42,44)", "note": "[HIR-6_T2]", "binding signal": 30900},
      {"binder": "CATGACGCTCACTGTATCTCGCGUUUAACGUAACAGCGAU (XNA, DNA backbone; 7-deaza-7-(indolyl-ethyl)-dA (dAAIn) at 27,28,32,33,35,39; 5-(phenyl-ethynyl)-dU (dUEPh) at 24,25,26,31,40)", "note": "[HIR-6_T3]", "binding signal": 19900},
      {"binder": "TATCTCGCGUUUAACGUAACAGCGAUGUCUCUCAUGAUGUC (XNA, DNA backbone; 7-deaza-7-(indolyl-ethyl)-dA (dAAIn) at 13,14,18,19,21,25,34,37; 5-(phenyl-ethynyl)-dU (dUEPh) at 10,11,12,17,26,28,30,32,35,38,40)", "note": "[HIR-6_T6]", "binding signal": 45500},
      {"binder": "ACTGTATCTCGCGUUUAACGUAACAGCGAUGUCUCUCAUGAUGUC (XNA, DNA backbone; 7-deaza-7-(indolyl-ethyl)-dA (dAAIn) at 17,18,22,23,25,29,38,41; 5-(phenyl-ethynyl)-dU (dUEPh) at 14,15,16,21,30,32,34,36,39,42,44)", "note": "[HIR-6_T5]", "binding signal": "45900 ± 733"},
      {"binder": "CGCTCACTGTATCTCGCGUUUAACGUAACAGCGAUGUCUCUCAUGAUGUC (XNA, DNA backbone; 7-deaza-7-(indolyl-ethyl)-dA (dAAIn) at 22,23,27,28,30,34,43,46; 5-(phenyl-ethynyl)-dU (dUEPh) at 19,20,21,26,35,37,39,41,44,47,49)", "note": "[HIR-6_T4]", "binding signal": 44700},
      {"binder": "CATGACGCTCACTGTATCTCGCGUUUAACGUAACAGCGAUGUCUCUCAUG (XNA, DNA backbone; 7-deaza-7-(indolyl-ethyl)-dA (dAAIn) at 27,28,32,33,35,39,48; 5-(phenyl-ethynyl)-dU (dUEPh) at 24,25,26,31,40,42,44,46,49)", "note": "[HIR-6_T1]", "binding signal": 26300},
      {"binder": "CGCTCACTGTATCTCGCGUUUAACGUAACAGCGAUGUCUC (XNA, DNA backbone; 7-deaza-7-(indolyl-ethyl)-dA (dAAIn) at 22,23,27,28,30,34; 5-(phenyl-ethynyl)-dU (dUEPh) at 19,20,21,26,35,37,39)", "note": "[HIR-6_T9]", "binding signal": 24700}
    ]},
    {"target": "Human insulin receptor ectodomain (HIR) (Homo sapiens, UniProt P06213-2;P06213-2 28-746;751-944)", "assay": "fluorescent Ni-plate binding assay (FNBA); PBS (1.5 mM KH2PO4, 8.1 mM Na2HPO4, 2.7 mM KCl, 137 mM NaCl) with 5 mM MgCl2, pH 7.4; MST with 0.1% Pluronic F-127 at 25 C; FNBA at room temperature; high values mean tight binding", "conditions": "protein: commercial; tags: His-tag; chain copies: 2;2; label: 5'-Cy5; hairpin, stem 18-22/36-40, A35 bulge", "units": {"binding signal": "a.u. fluorescence"}, "values": [
      {"binder": "HIR-6 (XNA, DNA backbone; 7-deaza-7-(indolyl-ethyl)-dA (dAAIn) at 27,28,32,33,35,39,48,51; 5-(phenyl-ethynyl)-dU (dUEPh) at 24,25,26,31,40,42,44,46,49,52,54) DNA: CATGACGCTCACTGTATCTCGCGUUUAACGUAACAGCGAUGUCUCUCAUGAUGUC", "binding signal": "45000 ± 766"}
    ]}
  ]
}
